This note sets out measurements from patent US5621089.

For the test, the target named is casein.

Substance “PD498 alkaline protease (protease purified from Bacillus sp. PD498, NCIMB No. 40484) (enzyme)” gave a proteolytic activity (Casein Protease Units, CPU) of 120 CPU/l.
